Target: the molecule itself
Assay: crystal structure; PMP·Cv-ATA; holo-Cv-ATA crystals grown by sitting drop in 100 mM HEPES pH 7.5, 350 mM NaCl, 22.5% PEG 4000, 0.1 mM PLP, cryoprotected with 20 mM 1-(S)-phenylethylamine; space group P1; 1.67 Å

B1: Chromobacterium violaceum (S)-selective amine transaminase, wild type (enzyme)
chain: MQKQRTTSQWRELDAAHHLHPFTDTASLNQAGARVMTRGEGVYLWDSEGNKIIDGMAGLWCVNVGYGRKDFAEAARRQMEELPFYNTFFKTTHPAVVELSSLLAEVTPAGFDRVFYTNSGSESVDTMIRMVRRYWDVQGKPEKKTLIGRWNGYHGSTIGGASLGGMKYMHEQGDLPIPGMAHIEQPWWYKHGKDMTPDEFGVVAARWLEEKILEIGADKVAAFVGEPIQGAGGVIVPPATYWPEIERICRKYDVLLVADEVICGFGRTGEWFGHQHFGFQPDLFTAAKGLSSGYLPIGAVFVGKRVAEGLIAGGDFNHGFTYSGHPVCAAVAHANVAALRDEGIVQRVKDDIGPYMQKRWRETFSRFEHVDDVRGVGMVQAFTLVKNKAKRELFPDFGEIGTLCRDIFFRNNLIMRACGDHIVSAPPLVMTRAEVDEMLAVAERCLEEFEQTLKARGLA
notes: omega-transaminase / (S)-selective amine transaminase of Chromobacterium violaceum, GenBank WP_011135573, in pET28a(+); No tag cleavage is described; also called Cv-ATA; Cv-TA; source: E. coli BL21(DE3), purified (HisTrap FF crude, gel filtration on Superdex 200)
binding result: binds
